# Measured values from paper PMC2825244.
# Target: Chemokine receptor four (CXCR4) (human (endogenous in JJ)) (UniProt P61073)
# UniProt P61073, sequence (P61073 whole entry): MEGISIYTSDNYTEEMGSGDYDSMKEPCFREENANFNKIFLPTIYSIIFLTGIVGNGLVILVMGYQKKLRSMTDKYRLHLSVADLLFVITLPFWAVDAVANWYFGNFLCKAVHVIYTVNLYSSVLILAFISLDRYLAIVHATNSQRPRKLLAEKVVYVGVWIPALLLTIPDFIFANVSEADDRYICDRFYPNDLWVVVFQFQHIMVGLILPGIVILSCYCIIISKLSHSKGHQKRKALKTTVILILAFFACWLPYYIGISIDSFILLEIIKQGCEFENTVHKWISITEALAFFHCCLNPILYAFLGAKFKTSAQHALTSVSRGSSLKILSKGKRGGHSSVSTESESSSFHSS
substance,measurement,value
human recombinant SDF-1 (stromal cell derived factor one) (from UniProt P48061 22-93) (ligand),"MMP1 mRNA (qRT-PCR, fold) in JJ cells in hypoxia with SDF1 10 ng/ml, against 9 fold by hypoxia alone; the SDF1 mediated increase was blocked by the CXCR4 inhibitor AMD3100 0.1 μM",23 fold
